Test results: the nanobody polyreactivity screen of Harvey et al. (2022)

Test: yeast display, Sf9 membrane polyspecificity reagent, FACS + sequencing; frameworks hold sequencing errors
Procedure, shortened: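 After 36–48 hours of galactose induction, yeast (Saccharomyces cerevisiae BJ5465) displaying a synthetic nanobody library were stained at 4 °C for 1 hour with 10% biotinylated, detergent-solubilized Sf9 membrane reagent. Streptavidin microbeads enriched the stained cells before FACS sorting into low and high (top ~1%) gates on anti-HA and streptavidin fluorescence. Each clone's polyreactivity label reflects its gate of origin.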

Row | Sequence | polyreactivity (PSR sort gate)
1 | PVQLVESGGGLVQAGGSLRLSCAASGIIFSDYAMGWYRQGPGKERELVAAITGGVSKYYADSVKGRFTISRDNAKNTVYLQMNSLKPEDTAVYYCNTDAWLETPVSGYSWGQGTQVTVSS | low polyreactivity
2 | PVQLVESGGGLVQAGGSLRLSCAASGRIFVYNVMGWSRQATGKERELVAASRWSGGSTYADSVNGRYTISRDQAKNPVYLQIHSLKPEDTADYYCAARHYRRGDSWAQGTQVTVSS | high polyreactivity
3 | PVQLVESGGGLVQAGGSLRLSCAASGRTFRSNCMGWYRQAPAKERDLVATISEGGGSTYYADSVKGRFTISRDHAKNNVYLQMNSLKTEYTAVYYCAADKWYVLHYLDMNYWGQGTQVTVSA | high polyreactivity
4 | PVQLVESGGGLVQAGGSLRLSCAASGRTFYAFDMGWSRQAPGKERELVSRITSGGSTDYADSVKGRFTSSRDNAKNTVYLQMNSLKPEDTAVYYCAAETSYAVSTGDHFDYWGQGTQVTVSS | high polyreactivity
5 | PVQLVESGGGLVQAGGSLRLSCAASGSTFYPNAMGWYRQAPGKEWELVAASTAGGSTYYADSVKGRFTISRDNAKNTVYLQMTSLKPEDTAVYSCAADFYWYWWQDWYDYWGQGTQVTVSS | high polyreactivity
6 | PVQLVESGGGLVQAGGSLRLTCAASGFTLTSNAMGWYRQAPGKERELVAAISKSGGSTHYADSVKGRFTISRDNAKNTVYLQMNSLKAEDTAVYYCATPYHRRFKGGDYWGQGTQVSVSS | high polyreactivity
7 | PVQLVESGGGLVQAGGSLRVSCAASGSIFYKNAMGWYRQAPGKEREMVAAITSSGGRTYYADSVKGRFTISRDNPKNTVYLQMNSLKPEDTAVFYCAAVYGYDKYDSWGLGTQVTVSS | low polyreactivity
8 | PVQLVESGGGLVQEGGSLRLICAASGRTFYGYAMGCYRPAPGKEREFVAAINSSGGTTYYADSVKGRCTISRDNAKNTVYRAMNSVKPEDTAFSYCAAVYSRIRRWPGYNAYDYWGHGTQVTVSS | high polyreactivity
9 | PVQLVESGGGVVQAGGSLRLSCAASGSTFEYYAMGWYRQAPGKERELVAAITRRGGSTYSADSVKGRFTISRDNAKNTVYVQMNSLKPEDTAVYYCAAKGFPRSGYPYQAQHMYYWGQGTQVTVSS | low polyreactivity
10 | PVQLVVSGGGLVQAGGSLRLSWAASGLIFRYYAMGWYRQAPGKERELVATIRGGGSTYYADSVKGRFTISRDKAKNTVTLQMNSLKPEATAVDYSAADPYSYGARGARGDYWGQGTQGTVSS | low polyreactivity
11 | QAELVESGGGLVQAGGSLRLSCAASGFTFTAYPMGWYRQAPGKERELVAAISYRGGRTNYAYSVKGRFTISRDNAKNTVYLQMNRLKPEDTAVYYCAARPRISTREMDYWGQGTQVTVSS | high polyreactivity
12 | QAQLQESGGSLVKAGGGLRLSCAASGYISVGSVMGRYRQAPSKERELVASIDQGANTNYADSVKGRFTISRDNGKNNVYLQMNSLKPEDTAVYYCATETTYILNYWGQGTEVTVSS | low polyreactivity
13 | QAQLVESGGGLVQAGGSLRLSCAASGFTFSFNAMGWYRQAPGKERELVAAISSTGSSTYYADSVKGRFTISRDNAKNTVYLQMNSLKPEDTAVYYCAASRRGYRPRRYDYWGQGTQVTVSS | high polyreactivity
14 | QDHLVDSGGGLVQAGGSLRLSCAAYGFTFYYNTMGWYRQAPGKERQLVAAISYSAGSTFYADSVKGRFTISRDNAKNTVYLQMNSLKPEDTAVYYCAAGRPRLHKGYHFGYWGQGTQVTVSS | low polyreactivity
15 | QDHLVESGGGLVPAGGSLRLSCAASGRIVYYVMGRYRQAPGKERELVAAISTRGGSTYYADSVKGRFTISRDNPKNTVYLQMNSLKAEDTAVYYCADSSLLTRYNSWGQGTQVTVSS | high polyreactivity
16 | QDHLVESGGGLVQAGGSLRLICAASGSTFTQYTMGWYRQAPGKERELVAAISSGGGRTYYADSVKGRFTISRDNAKNTVYLQMYSLKPEDTAFYYCAADYQNSRRGRGNSQYYYWGQGTQVTVSS | low polyreactivity
17 | QDHLVESGGGVVQAGGSLRLSCAATGSTIYRYPMGSYRQAPGNERELVAAISTRGGSTYYADSVKGRFTISRDNRKNTVYLQMNSLKPVDTAVYYCAAKCGSPDDYDYWGQGTQVTVSS | high polyreactivity
18 | QDKLVESGGGLVQAGGSLRLSCAASGSTSRDNAMVWYRQAPGKERELVAAITVIDGTTYYADSVKGRFTISRDNAKNTLYLQMNSLKPEDTAVYYCAADTIWFEYYYWGQGTQVTVSS | low polyreactivity
19 | QDQHVESGGGLVQAGGSLRLICDASGTFKFSAMGWYRQAPGKERELVARISRGGTTNYADSVKGRFTISRDNAKNTVYLQMNSLKPAETAVYYCAAPLRYVYSNSYWAYRYDYSGQGTQVTVSS | high polyreactivity
20 | QDQHVESGGGLVQAGGSLRLSCAASGLTFDQYAMGWYRQAPGKERELVAAISGSDSTYYADSVKGRFTISRDNAKNTVYLQMNSLKPEDTAVYYCAASGDYVNIITGERFDARLYDYWGQGTQVTVSS | low polyreactivity
21 | QDQHVESGGGLVQAGGSLRLSCAASGNTFIRNVMGWYRLAPGKERELVAGIRTGGSTFYADSVKGRFTISRDNAKNTVYLQMNSLKPEDTAVYYCKAEVGDEGNLPYVIRPMDYWGQGTQVTVSS | low polyreactivity
22 | QDQHVESGGGLVQAGGSLRLSCAASGRIYDPYAMGWYRPAPGKERELVATISYSDGSTYYADSVKGRFTISRDNAKNTVYLQMNSLKPEDTAVYYGNAEFVGWWGYPTVLRLEYWGQGTQVTVSS | low polyreactivity

Row | Sequence | polyreactivity (PSR sort gate)
23 | QDQHVESGGGLVQAGGSLRLSCAASGSNFDVYAMGWYRQAPGKERELVATISYGDSSTYYADSVKGRFTISRDNAKNTVYLQMNSLKPEDTAVYYCAADYLTAPRWRQWGVMDYWGQGTLVTVSS | low polyreactivity
24 | QDQHVESGGGLVQAGGSLRLSCAASGSTFAWYSMGWYRQAPGKERELVASITSTGSTNYADSVKGRYTISRDNAKNTVYLQMNSLKPVDTAVYYCAAAVRAWYLRLYDYWGQGTQVTVSS | high polyreactivity
25 | QDQHVESGGGLVQAGGSLRLSGAASGRTVGWYAMGWYRQAHGKVRELVAAITSSVDSTYYADSVKGRFTISRDNAKNTVYLLMNRLKPEDTAVYYCAADYDDGFYLYDYWGQGTQVTVSS | low polyreactivity
26 | QDQHVESGGGLVQAGGSQRLSCAAYGFIFWIYAMGWYRQAPGKEREFVAVITYRGDTTYYADSVKGRFTISRDNAKNTVFLQMNSMKPEDTAVYYCAAYTVQKYGYWGQGTQVTVSS | low polyreactivity
27 | QDQHVESGVGLVQAGGSLRLSCAASGSIFGNYAMGWYRQAPGKERELVAAIRVSDGRTYDADSVKGRFTISRDNAKNTVYLQMNSLKPEDTAVYYCAAESESSYGPYDYWGQGTQVTVSS | low polyreactivity
28 | QDQHVESGVGLVQEGGSLRLSCAASGIIIDEYAMGLYRQAPGKERELVAAISSRGTNTYYADSVKGRFTISRDNAKNTVYLQMNSLKPEDTAVYYCAARRPPVTRHFGYWGQGTQVTVSS | high polyreactivity
29 | QDQHVETGGGLVQAGGSLRLSCAASGRTFKFYAMGWYRQAHGKERELVAAITSGGKTNYADSVKGRFTISRDNAKNTVYLQLNSLKPEDTAVYYCKADAGRLSNRYRLWTYGYWGQGTQVTVSS | low polyreactivity
30 | QDQIVESGGGLVQAGGSLRLIFAASGLTIARNAMGWYRQAPGKERELVAAISFSGGSTYYADSVKGRFTISRDNAKNTVYLLMNSLKPEDTAVYYCNTLLRRDFNYWGQGTQVTVSS | high polyreactivity
31 | QDQIVESRGRLVQAGGSLRLSCAASGRTFKPYAMGWYRQAPGKERELVARISGSGGSTYYADSVKGRFTISRDNAKNTVYLQMNSLKPEDTAVYDCATTPYYWFYYWGQGTQVTVSS | low polyreactivity
32 | QDQIVESWGGLVQSGGSLRLTCAASGRTFSTYAMGWYRQAPGKERELVAAISWRGARTYYADSVKGRFTISRDNAKNTVYLQMNSLKPEDTAVYYCAAAPYRYRRYEYWGQGTQVTVSS | high polyreactivity
33 | QDQLEESGGGLLQARGSLRLSCAASGSIFTCNGRGWYRQAPGKERELVAAISNGASTNYADSVKGRFTISRDNAKNSVYLQMNSLKPEDTAVYYCAAKSTGRYDYWGQGTQGTVSS | low polyreactivity
34 | QDQLEESGGGLVHAGGSLRLSCAASGRIFLTNAMGWYRQAPGKERELVAAITSGGSTYYADSVKGRFTISRDNEMNTVYLQMNSLNPEDTAVYYCNAYVTSGYANEYYWGQGSQVTVSS | low polyreactivity
35 | QDQLEESGGGLVQAGGSLRLSCAASGFIFNHYAMGWYRQAPGKEREFVAAISWSGGSTYYADSVKGRFTISRDYAKNTVYLQMNSLKPEDTAVYYCAASYNGLWHGDYDYWGQGTQVTVSS | low polyreactivity
36 | QDQLEESGGGLVQAGGSLRLSCAASGRIFFRNLMGAYRQPTGKERELVATITSGGRTYYADSVKGRFTISRDNAKNTVYLQMNSLKPVDTAVYYCATVYRPGGVYGYEYWGQGTQVTVSS | high polyreactivity
37 | QDQLEESGGGLVQAGGSLRLSCAASGRTFIYYAMGWYRQAPGKERELVAAITRSGGITNYADSVKGRFTISRDNSKNTVYLQMNSLKTEDTEVYYCAARFYGRRCIYGYWGQGTQVTVSS | high polyreactivity
38 | QDQLGESGGGLVQAGGSLRLSCAASGFTFWWYAMGWYRQAPGKERELVAGITSGASTYYADSVKGRYTISRDNAKNTVYIQMNSLKPEDTAVYYCAADWLGWYQPYDYWGQGTQVTVSS | low polyreactivity
39 | QDQLGESGGGLVQAGGSLRLSCAASGSTFTWYAMGWYRQAPGKERELVAAISRGGSTNYADSVKGRFTISRDNAKNTVYLQMNSLKPEDTAVYYFAAESYWRDDYWGQGTQVTLSS | low polyreactivity
40 | QDQLVDSGGGLDQAGGSLRLSCAASGIIFPRYALGWYRQAPGKERELVAAITRRGGRTYYADSVKGRFTISRDNAKNTVYLQMNSLKPEDTAVYYCNADFISTLPPKATEEDYWGQGTQVTVSS | high polyreactivity
41 | QDQLVDSGGGLLQAGGSLSLSCAASGHIIQVKTMGWYRQAPGKERELVASISASVGSTYYADSVKGRFTISRDNAKNTVYLQMNSLKPEDTAVYYCAKSLGYSVVRTLSPTGFYYWGQGTQVTVSS | low polyreactivity
42 | QDQLVDSGGGLVQAGGSLRLICAASGYIIHDNAMGWYRQAPGKERELVAAINRGGSTHYADSVKGRFTISRDNAKNTVYLQMNSLKPEDTAVYYCAAKDGRSYYDRTPMDYWGQGTQVTVSS | low polyreactivity
43 | QDQLVDSGGGLVQAGGSLRLRCGASGRILAWYAMGWYRQAPGKEREFVAGNTGSVGSTYYADSVKGRFTNSRDNEKNTVDLQMNSLKPEDTAVYYCYNEWDSTSGQKHYYWGQGTQVTVSS | low polyreactivity
